Experimental data: US20250073277A1, “METHODS FOR OBTAINING CARDIOMYOGENIC PRECURSOR CELLS” (University of Miami, published 2025)

Target: T1, human growth hormone-releasing hormone receptor (GHRHR) (human)
T1 chain: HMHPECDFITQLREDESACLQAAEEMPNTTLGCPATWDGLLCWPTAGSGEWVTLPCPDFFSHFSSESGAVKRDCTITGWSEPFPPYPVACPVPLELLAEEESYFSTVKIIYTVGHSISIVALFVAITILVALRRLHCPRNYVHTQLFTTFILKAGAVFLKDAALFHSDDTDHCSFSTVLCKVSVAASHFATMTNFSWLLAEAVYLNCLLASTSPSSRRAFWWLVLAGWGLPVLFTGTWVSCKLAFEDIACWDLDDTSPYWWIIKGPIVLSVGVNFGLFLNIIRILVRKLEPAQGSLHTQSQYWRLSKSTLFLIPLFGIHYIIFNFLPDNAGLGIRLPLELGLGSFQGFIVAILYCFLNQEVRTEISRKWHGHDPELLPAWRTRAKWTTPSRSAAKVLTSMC
Test: cell-based or functional assay

YADAIFTNSYRKVLGQLSARKLLQDIMSRQQGESNQERGARARL (ligand) [recombinant growth hormone-releasing hormone (GHRH)] was tested, and the “NKX2.5 expression in differentiating hiPSCs” value was 2.5 fold.
